The values below come from US20050048060A1, “Immunoconjugates” (priority 2002, published 2005).

For series [1], the system named is LS 174T xenografts. Briefly: Anti-tumor effect of the prodrug therapy in nude mice with LS 174T xenografts. Format: in vivo. The conditions noted are these: conjugate 1 mg/kg i.v. The procedure:
FIG. 5: Therapeutic effect of cAb::βL/CCM combinations in nude mice with LS 174T xenografts. Conjugates (1 mg/kg) were injected i.v. on days indicated by the arrows, and CCM was administered 24 hours later. The therapeutic effects were compared to those of PDM at the MTD.
The anti-tumor effect of giving cAb-CEA::βL conjugate (1 mg/kg body weight) followed 24 hours later by escalating doses of CCM (100, 150, 200 mg/kg) are shown in FIG. 5. […] Therapeutic efficiency was dose-dependent.
Groups of five female athymic nude mice were injected subcutaneously with 2×10^6 LS 174T tumor cells. Ten days later when the tumors reached a size of about 100 mm^3, 1 mg/kg bodyweight of βL conjugates was injected i.v., followed 24 hours later by the prodrug CCM. Treatment with cAb-βL+CCM was carried out on a weekly schedule for a total of three rounds. The animals were monitored twice a week for general health, weight and tumor growth and compared to control groups receiving no treatment. Tumor volumes were calculated using the formula (longest length×perpendicular width^2)/2.

The test system of series [2] is LS 174T tumor xenografts. Briefly: Conjugate localization (125I labeled conjugate biodistribution) in nude mice bearing LS 174T tumor xenografts. Particulars: mouse, in vivo, iv, 1 mg/kg. Here is the method:
FIG. 4: Pharmacokinetics of cAb-CEA5::βL and the nonbinding control cAb-Lys3::βL in nude mice (three animals/group). βL conjugate levels in subcutaneous LS 174T colon carcinoma tumors and in normal tissues are shown at 6 hours, 24 hours and 48 hours post-administration. cAb-Lys3::βL served as nonbinding control.
Studies were undertaken in nude mice to establish the extent of cAb-CEA5::β-lactamase conjugate localization in LS 174T tumor xenografts. ^125I labeled cAb-CEA5::β-lactamase (4,728,481 cpm/μg conjugate) or cAb-Lys3::β-lactamase conjugate (2,691,621 cpm/μg conjugate) were injected i.v. (1 mg/kg) into mice (3 animals/group) that had subcutaneous LS 174T carcinoma tumors of about 0.5-1 cm diameter. The amount of radioactivity in the tumors, blood, and several other tissues was determined 6 hours, 24 hours and 48 hours later (FIG. 4). […] In order to see whether the radioactivity measured originated from intact conjugate molecules or degraded material, the enzymatic activity of β-lactamase in targeted tumor, liver and kidney tissue using nitrocefin was assessed. […]
The cAb-CEA::βL conjugate was radioiodinated with carrier-free ^125I using the IODOGEN reagent, following the manufacturer's (Pierce, Rockford, Ill., US) recommended method. […] The tumor, a sample of blood, and a range of other tissues were removed, weighed, and counted in a gamma counter.

For series [3], the system named is LS 174T human adenocarcinoma cells. Briefly: In vitro cytotoxicity assay, [3H] thymidine incorporation, conjugate + CCM prodrug. Particulars: cells blocked with unconjugated cAb-CEA5 0.1 mg/ml before conjugate. On the technique in general: Uptake of a labelled nucleoside into DNA is a usual measure of proliferation.
Details of series [4]: species or system nude mice. The procedure: Studies were undertaken in nude mice to establish the extent of cAb-CEA5::β-lactamase conjugate localization in LS 174T tumor xenografts. ^125I labeled cAb-CEA5::β-lactamase (4,728,481 cpm/μg conjugate) or cAb-Lys3::β-lactamase conjugate (2,691,621 cpm/μg conjugate) were injected i.v. (1 mg/kg) into mice (3 animals/group) that had subcutaneous LS 174T carcinoma tumors of about 0.5-1 cm diameter. The amount of radioactivity in the tumors, blood, and several other tissues was determined 6 hours, 24 hours and 48 hours later (FIG. 4). […] A rather high accumulation of both cAb-CEA5::βL and cAb-Lys3::βL conjugates in the kidneys (0.41-0.53% ID/g tissue) was also noticed. In order to see whether the radioactivity measured originated from intact conjugate molecules or degraded material, the enzymatic activity of β-lactamase in targeted tumor, liver and kidney tissue using nitrocefin was assessed. […] The blood and normal tissue levels were still high at this time point and, thus, tumor/normal tissue ratios were low. After 24 hours, although the amounts of cAb-CEA::βL conjugate in the tumors had fallen to approximately 1% injected dose/g tumor, the blood and normal tissue levels had fallen more rapidly and, consequently, tumor/normal tissue ratios were in the 10-50 fold range, except for the kidneys where a high amount of radioactivity could still be measured.

B1: cAb-CEA5-βL (protein)
chain: QVQLVESGGGSVQAGGSLRLSCAASGDTYGSYWMGWFRQAPGKEREGVAAINRGGGYTVYADSVKGRFTISRDTAKNTVYLQMNSLRPDDTADYYCAASGVLGGLHEDWFNYWGQGTQVTVSSAHHSEDPSSKAPKAPMGTPVSEKQLAEVVANTITPLMKAQSVPGMAVAVIYQGKPHYYTFGKADIAANKPVTPQTLFELGSISKTFTGVLGGDAIARGEISLDDAVTRYWPQLTGKQWQGIRMLDLATYTAGGLPLQVPDEVTDNASLLRFYQNWQPQWKPGTTRLYANASIGLFGALAVKPSGMPYEQAMTTRVLKPLKLDHTWINVPKAEEAHYAWGYRDGKAVRVSPGMLDAQAYGVKTNVQDMANWVMANMAPENVADASLKQGIALAQSRYWRIGSMYQGLGWEMLNWPVEANTVVEGSDSKVALAPLPVAEVNPPAPPVKASWVHKTGSTGGFGSYVAFIPEKQIGIVMLANTSYPNPARVEAAYHILEALQHHHHHH
Regarding B1, in series [1] (24 hours later CCM 200 mg/kg/injection), the “anti-tumor activity at 200 mg CCM/kg/injection” value is “Significant anti-tumor activity including partial regression of the tumors”. In series [1] (24 hours later CCM 100, 150, 200 mg/kg, weekly, three rounds, vs non-treated or cAb-Lys3::βL + CCM), the “anti-tumor effect of the prodrug therapy combination” value is listed as “significant anti-tumor effect”. For the same molecule, in series [2], the “amount of conjugate in the tumors” value is “approximately 1 % injected dose/g tumor”. The “prodrug CCM activation on cells saturated with unconjugated cAb-CEA5” value in series [3] is recorded as “activated CCM at marginal levels”. Moreover, in series [4], the “β-lactamase enzymatic activity in excised tumor tissue” value is “enzymatic activity was intact”, the “β-lactamase enzymatic activity in kidney tissue” value was “no activity could be measured” and the “β-lactamase enzymatic activity in liver tissue” value is “no activity could be measured”.
